From patent publication US8759300B2, “Polypeptides and methods of use” (The Research Foundation for the State University of New York, priority 2007, dated 2014)
Read-outs that look alike come from different tables or passages of the source.

Columns and labels:
PDGF-BB [1] = molecular target: T1, PDGF-BB (Homo sapiens, UniProt P01127); assay: Equilibrium binding of 125I-PDGF-BB to FN, FN domains and peptides; details: for Kd: equilibrium binding
Experimental: (§1) 20 μl of 50% v/v peptide-agarose beads are incubated with 125I-PDGF in 0.1 ml of binding buffer (DMEM+2% BSA) at room temperature for 2 hours with rotation. Beads are washed 6 times with DMEM. Bound PDGF-BB are released by the addition of 100 μl of 1M NaOH. The radioactivity bound to FN-beads are quantified in a γ-counter. Nonspecific binding are established from ^125I-PDGF binding to nonconjugated beads, then specific binding derived by subtraction of nonspecific binding from total binding. Binding constants (KD) and Bmax are determined from nonlinear regression of specific binding curves using Prism 4 from GraphPad Software, San Diego, Calif. “Scatchard plots” are derived from the KD and Bmax obtained with non linear regression analysis.

PDGF-BB [2] = molecular target: T1, PDGF-BB; assay: Surface plasmon resonance (Biacore), PDGF-BB; type: binding
Experimental: (§2) In the Biacore2000 system, binding constants from kinetic data are determined by passing varying concentrations of FN peptides (analytes) over chip surfaces which are coupled with PDGF-BB (ligand), respectively. All kinetic experiments are carried out at 20° C. at a flow rate of 20 μl/min. For mass transport experiments, each analyte is injected at a fixed concentration and run at flow rates ranging from 5 to 75 μl/min. All analytes are injected over PDGF-BB ligand surfaces as well as over a control surface for 120 s, followed by 300 s of dissociation in running buffer. Regeneration of the sensor chip for subsequent injections is accomplished by pulse of 0.1% SDS. Mass transport experiments have detected little difference in response at different flow rates thus validating data from kinetic experiments. Sensorgrams are prepared and globally fitted using nonlinear least-squares analysis and numerical integration of the differential rate equations with the Biacore Bioevaluation software. Each sensogram generated using a control surface is substracted from the corresponding experimental sensorgrams, and the resulting curves are transformed to concentration units using the molecular mass of the injected species, the equivalence of 1000 resonance units (RU) per 1 ng/mm^2, and a matrix thickness of 100 nm. Each data set, which consists of a series of sensorgrams from injections of different concentration of analyte over the same surface, are analyzed using kinetic models from Biaevaluation software.

[3] = tested on: GFs (TGF-β1, PDGF-BB, VEGF, FGF-2); assay: Binding of growth factors to FN domains, GFs reported together
Experimental: as §1
In the Biacore2000 system, binding constants from kinetic data are determined by passing varying concentrations of FN peptides (analytes) over chip surfaces which are coupled with PDGF-BB (ligand), respectively. All kinetic experiments are carried out at 20° C. at a flow rate of 20 μl/min. […] Mass transport experiments have detected little difference in response at different flow rates thus validating data from kinetic experiments. […] Each data set, which consists of a series of sensorgrams from injections of different concentration of analyte over the same surface, are analyzed using kinetic models from Biaevaluation software.

FN-null cells = assay: FN-null cell survival on surfaces coated with FN domains; type: cell-based, mouse; details: for FN-null cell survival / proliferation: FNIII8-11 ± named FN domain, or named FN construct, PDGF-BB added 2 hrs after plating; for FN-null cell survival with PDGF at 3 days: surface precoated with 0.15 μM GST-tagged FNIII8-11 ± named FN domain, or named FN construct, PDGF-BB added 1 day after plating
Experimental: To further investigate the response of cells to PDGF-BB bound to FN domains, we investigated the survival response of mouse fibroblasts null for FN (FN−/−), or “FN-null”. First we determined the response of FN-null cells to PDGF-BB in the absence of serum or other sources of exogenous FN. […] Next, FN-null cells were plated on tissue culture plastic surfaces precoated with 0.15 μM GST-tagged FNIII8-11±other FN domains known to have PDGF-BB binding activity and then PDGF-BB added 1 day later. […] Importantly, differential response of FN-null cells, plated on different FN domains, to PDGF-BB was not secondary to differences in attachment as judged by cell counts two hours after plating. The FNIII8-11 central cell binding domain was present in all circumstances.

EGF = EGF (Homo sapiens, UniProt P01133); assay: Binding of EGF to FN, FN domains and peptides
TGF-β1 [4] = molecular target: T2, TGF-β1 (Homo sapiens, UniProt P01137); assay: Equilibrium binding of TGF-β1 to FN, FN domains and peptides
Experimental: [The source words this procedure for another target and reports this target under the same test.] as §1

TGF-β1 [5] = molecular target: T2, TGF-β1; assay: Surface plasmon resonance, TGF-β1; type: binding
Experimental: [The source words this procedure for another target and reports this target under the same test.] as §2

bFGF (FGF-2) = bFGF (FGF-2) (Homo sapiens, UniProt P09038); assay: Equilibrium binding of bFGF (FGF-2) to FN and FN domains; details: method not restated (equilibrium and kinetic binding performed); read-out: KD, bFGF binding
Experimental: [The source words this procedure for another target and reports this target under the same test.] as §1

FGF-2 = FGF-2 (Homo sapiens, UniProt P09038); assay: Surface plasmon resonance, FGF-2; details: read-out: KD, FGF-2 binding
Experimental: [The source words this procedure for another target and reports this target under the same test.] as §2, with “Each sensogram generated using a control surface is substracted from the corresponding experimental sensorgrams, and the resulting curves are transformed to concentration units using the molecular mass of the injected species, the equivalence of 1000 resonance units (RU) per 1 ng/mm^2, and a matrix thickness of 100 nm.” left out

VEGF = molecular target: T3, VEGF (Homo sapiens, UniProt P15692); assay: Surface plasmon resonance, VEGF; type: binding; details: plasmon resonance; read-out: KD, VEGF binding
T3 sequence (P15692 27-191 isoform P15692-4): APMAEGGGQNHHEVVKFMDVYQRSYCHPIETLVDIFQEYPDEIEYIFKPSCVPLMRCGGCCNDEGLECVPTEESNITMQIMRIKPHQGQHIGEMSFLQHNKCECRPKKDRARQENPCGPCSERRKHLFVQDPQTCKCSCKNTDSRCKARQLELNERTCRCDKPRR

[6] = tested on: GFs (TGF-β1, PDGF-BB, VEGF, FGF-2); assay: Binding of growth factors to FN domains, GFs reported together; remark: listed apart in the source
[7] = method not restated (equilibrium and kinetic binding performed)
[8] = plasmon resonance, kinetic binding
[9] = method not restated, read-out: KD, TGF-β1 binding
[10] = method not restated, read-out: KD, PDGF-BB binding

T2 sequence (P01137 279-390 limits assumed): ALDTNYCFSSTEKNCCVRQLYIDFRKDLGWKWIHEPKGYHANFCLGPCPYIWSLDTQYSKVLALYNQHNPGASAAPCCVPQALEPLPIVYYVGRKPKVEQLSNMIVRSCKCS
Chain of bFGF (FGF-2) (P09038 143-288): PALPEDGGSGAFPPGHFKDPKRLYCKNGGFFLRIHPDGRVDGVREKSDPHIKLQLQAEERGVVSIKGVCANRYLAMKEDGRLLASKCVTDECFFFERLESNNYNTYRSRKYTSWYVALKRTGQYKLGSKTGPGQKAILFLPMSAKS
T1 sequence (P01127 82-190 limits assumed): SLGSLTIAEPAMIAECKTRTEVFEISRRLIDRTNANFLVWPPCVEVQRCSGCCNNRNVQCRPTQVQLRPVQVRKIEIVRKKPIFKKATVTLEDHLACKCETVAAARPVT
Chain of FGF-2 (P09038 143-288): as the sequence (P09038 143-288) above
Chain of EGF (P01133 971-1023 limits assumed, species assumed): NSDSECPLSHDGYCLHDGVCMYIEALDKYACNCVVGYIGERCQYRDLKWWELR

B1: FNIII12-13: FN domain, type III repeats 12-13 (protein)
chain: MGSAIPAPTDLKFTQVTPTSLSAQWTPPNVQLTGYRVRVTPKEKTGPMKEINLAPDSSSVVVSGLMVATKYEVSVYALKDTLTSRPAQGVVTTLENVSPPRRARVTDATETTITISWRTKTETITGFQVDAVPANGQTPIQRTIKPDVRSYTITGLQPGTDYKIYLYTLNDNARSSPVVIDASTTSHHHHHHC
Kd (PDGF-BB [1]): 75 nM

B2: FNIII3-6: recombinant FN domain, type III repeats 3-6 (protein)
chain: MGSAPPDTTVDQVDDTSIVVRWSRPQAPITGYRIVYSPSVEGSSTELNLPETANSVTLSDLQPGVQYNITIYAVEENQESTPVVIQQETTGTPRSDTVPSPRDLQFVEVTDVKVTIMWTPPESAVTGYRVDVIPVNLPGEHGQRLPISRNTFAEVTGLSPGVTYYFKVFAVSHGRESKPLTAQQTTKLDAPTNLQFVNETDSTVLVRWTPPRAQITGYRLTVGLTRRGQPRQYNVGPSVSKYPLRNLQPASEYTVSLVAIKGNQESPKATGVFTTLQPGSSIPPYNTEVTETTIVITWTPAPRIGFKLGVRPSQGGEAPREVTSDSGSIVVSGLTPGVEYVYTIQVLRDGQERDAPIVNKVVTPLSTSHHHHHHC
PDGF-BB binding, in words (PDGF-BB [1]; equilibrium binding and/or plasmon resonance): did not
PDGF-BB binding, in words (PDGF-BB [2]; surface resonance): no binding
Binding of the GFs tested, in words [3]: In no case did any GF bind
FN-null cell survival / proliferation, summary statement (FN-null cells; cells plated on named FN construct, or on FNIII8-11 ± named domain): did not support cell survival

B3: IIICS: variably-spliced IIICS domain of FN (protein)
chain: MGSDELPQLVTLPHPNLHGPEILDVPSTVQKTPFVTHPGYDTGNGIQLPGTSGQQPSVGQQMIFEEHGFRRTTPPTTATPIRHRPRPYPPNVGEEIQIGHIPREDVDYHLYPHGPGLNPNASTTSHHHHHHC
Kd (PDGF-BB [1]): 350 nM
EGF binding, in words (EGF): failed to bind
Kd (TGF-β1 [4]; [7]): 74 nM
FN-null cell survival / proliferation (FN-null cells): enhance survival
FN-null cell survival with PDGF at 3 days (FN-null cells): increased survival

B4: FNIII1-7: FN domain, type III repeats 1-7 (protein)
chain: MGSGPVEVFITETPSQPNSHPIQWNAPQPSHISKYILRWRPKNSVGRWKEATIPGHLNSYTIKGLKPGVVYEGQLISIQQYGHQEVTRFDFTTTSTSTPVTSNTVTGETTPFSPLVATSESVTEITASSFVVSWVSASDTVSGFRVEYELSEEGDEPQYLDLPSTATSVNIPDLLPGRKYIVNVYQISEDGEQSLILSTSQTTAPDAPPDTTVDQVDDTSIVVRWSRPQAPITGYRIVYSPSVEGSSTELNLPETANSVTLSDLQPGVQYNITIYAVEENQESTPVVIQQETTGTPRSDTVPSPRDLQFVEVTDVKVTIMWTPPESAVTGYRVDVIPVNLPGEHGQRLPISRNTFAEVTGLSPGVTYYFKVFAVSHGRESKPLTAQQTTKLDAPTNLQFVNETDSTVLVRWTPPRAQITGYRLTVGLTRRGQPRQYNVGPSVSKYPLRNLQPASEYTVSLVAIKGNQESPKATGVFTTLQPGSSIPPYNTEVTETTIVITWTPAPRIGFKLGVRPSQGGEAPREVTSDSGSIVVSGLTPGVEYVYTIQVLRDGQERDAPIVNKVVTPLSPPTNLHLEANPDTGVLTVSWERSTTPDITGYRITTTPTNGQQGNSLEEVVHADQSSCTFDNLSPGLEYNVSVYTVKDDKESVPISDTIIPETSHHHHHHC
Kd (TGF-β1 [5]; [8]): 18 nM
Kd (bFGF (FGF-2)): 4.1 nM
Kd (PDGF-BB [1]): 75 nM
Kd (TGF-β1 [4]; equilibrium binding): 17 nM
Kd (PDGF-BB [2]; [8]): 100 nM
Binding of the GFs tested, in words [3]: all four GFs bound

B5: FNIII12-14: recombinant heparinII-binding domain of FN, type III repeats 12-14 (protein)
chain: MGSAIPAPTDLKFTQVTPTSLSAQWTPPNVQLTGYRVRVTPKEKTGPMKEINLAPDSSSVVVSGLMVATKYEVSVYALKDTLTSRPAQGVVTTLENVSPPRRARVTDATETTITISWRTKTETITGFQVDAVPANGQTPIQRTIKPDVRSYTITGLQPGTDYKIYLYTLNDNARSSPVVIDASTAIDAPSNLRFLATTPNSLLVSWQPPRARITGYIIKYEKPGSPPREVVPRPRPGVTEATITGLEPGTEYTIYVIALKNNQKSEPLIGRKKTTSHHHHHHC
Kd (TGF-β1 [5]; [9]): 7.6 nM
Kd (bFGF (FGF-2)): 1.9 nM
Kd (PDGF-BB [1]): 35 nM
Kd (TGF-β1 [4]; [7]): 7.6 nM
Kd (PDGF-BB [2]; [10]): 55 nM
FN-null cell survival / proliferation (FN-null cells): enhance survival
FN-null cell survival with PDGF at 3 days (FN-null cells): increased survival

B6: FNIII12-V15: composite heparinII-binding and variably-spliced IIICS domains of FN (protein)
chain: MGSAIPAPTDLKFTQVTPTSLSAQWTPPNVQLTGYRVRVTPKEKTGPMKEINLAPDSSSVVVSGLMVATKYEVSVYALKDTLTSRPAQGVVTTLENVSPPRRARVTDATETTITISWRTKTETITGFQVDAVPANGQTPIQRTIKPDVRSYTITGLQPGTDYKIYLYTLNDNARSSPVVIDASTAIDAPSNLRFLATTPNSLLVSWQPPRARITGYIIKYEKPGSPPREVVPRPRPGVTEATITGLEPGTEYTIYVIALKNNQKSEPLIGRKKTDELPQLVTLPHPNLHGPEILDVPSTVQKTPFVTHPGYDTGNGIQLPGTSGQQPSVGQQMIFEEHGFRRTTPPTTATPIRHRPRPYPPNVGEEIQIGHIPREDVDYHLYPHGPGLNPNASTGQEALSQTTISWAPFQDTSEYIISCHPVGTDEEPLQFRVPGTSTSATLTGLTRGATYNVIVEALKDQQRHKVREEVVTVGNSVNEGTSHHHHHHC
Kd (bFGF (FGF-2)): 37 nM
Kd (PDGF-BB [1]): 21 nM
Kd (TGF-β1 [4]; equilibrium binding): 97 nM
Kd (FGF-2; plasmon resonance): 37 nM
Kd (PDGF-BB [2]; [8]): 17 nM
Kd (VEGF): 0.6 nM
GF binding with up to 2.5 M NaCl or pH lowered to about 2.0 [6]: failed to demonstrate any diminution
FN-null cell survival / proliferation (FN-null cells): enhance survival

B7: FNIII12-15: heparin II binding domain of FN (protein)
chain: MGSTIPAPTDLKFTQVTPTSLSAQWTPPNVQLTGYRVRVTPKEKTGPMKEINLAPDSSSVVVSGLMVATKYEVSVYALKDTLTSRPAQGVVTTLENVSPPRRARVTDATETTITISWRTKTETITGFQVDAVPANGQTPIQRTIKPDVRSYTITGLQPGTDYKIYLYTLNDNARSSPVVIDASTAIDAPSNLRFLATTPNSLLVSWQPPRARITGYIIKYEKPGSPPREVVPRPRPGVTEATITGLEPGTEYTIYVIALKNNQKSEPLIGRKKTGQEALSQTTISWAPFQDTSEYIISCHPVGTDEEPLQFRVPGTSTSATLTGLTRGATYNVIVEALKDQQRHKVREEVVTVGNSVNEGTSHHHHHHC
Kd (TGF-β1 [5]; [9]): 16 nM
Kd (bFGF (FGF-2)): 130 nM
Kd (PDGF-BB [1]): 6.8 nM
Kd (TGF-β1 [4]; [7]): 16 nM
Kd (FGF-2; method not restated): 170 nM
Kd (PDGF-BB [2]; [10]): 6.8 nM
